Reference: patent US20150104450A1

How the values were obtained:
[1] = biological target: cynomolgus monkey CD86 extracellular domain with FLAG 10xhis tag (cynomolgus monkey); experiment: SPR (Biacore 2000), ratio of KD
[2] = biological target: human CD86 extracellular domain with FLAG 10xhis tag (human); experiment: SPR (Biacore 2000), ratio of KD
[3] = biological target: cynomolgus monkey CD86 extracellular domain with FLAG 10xhis tag (cynomolgus monkey); experiment: SPR (Biacore 2000), CTLA-4-Fc amine-coupled to CM5, ligand ECD as analyte, monovalent affinity
[4] = biological target: human CD86 extracellular domain with FLAG 10xhis tag (human); experiment: as above

Chain of human CD86 extracellular domain with FLAG 10xhis tag (human) (chain, as listed by the source limits assumed, form in doubt): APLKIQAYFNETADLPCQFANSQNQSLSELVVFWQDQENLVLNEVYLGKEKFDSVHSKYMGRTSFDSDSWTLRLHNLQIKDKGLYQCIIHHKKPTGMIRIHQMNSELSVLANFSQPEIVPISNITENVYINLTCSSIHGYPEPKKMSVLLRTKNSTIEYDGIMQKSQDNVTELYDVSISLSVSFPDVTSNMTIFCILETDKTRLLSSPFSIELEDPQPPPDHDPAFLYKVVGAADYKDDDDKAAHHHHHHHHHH
Chain of cynomolgus monkey CD86 extracellular domain with FLAG 10xhis tag (cynomolgus monkey) (chain, as listed by the source limits assumed, form in doubt): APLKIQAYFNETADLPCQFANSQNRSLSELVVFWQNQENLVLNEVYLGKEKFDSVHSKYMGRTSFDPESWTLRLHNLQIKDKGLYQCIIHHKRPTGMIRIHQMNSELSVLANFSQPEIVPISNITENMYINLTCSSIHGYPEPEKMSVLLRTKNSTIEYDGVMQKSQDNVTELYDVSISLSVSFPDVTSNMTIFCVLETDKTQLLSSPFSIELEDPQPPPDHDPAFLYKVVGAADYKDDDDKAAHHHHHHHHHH

fold-improvement in affinity over wild type CTLA-4 in Fc fusion format [1]: 1 fold
fold-improvement in affinity over wild type CTLA-4 in Fc fusion format [2]: 1 fold
Kd [3]: 6.53 µM
Kd [4]: 6.42 µM
Substance: wild type CTLA-4 (SEQ ID NO: 35) in Fc fusion format
